In test [1] the target is N-terminal domain of murine CNPase (residues -1-160) (mouse). Description: SEC; Superdex 75 10/300 GL; 20 mM Na-HEPES pH 8, 200 mM NaCl, 1 mM DTT; 250 µl at 1.7 mg/ml injected; molecular weight markers run under the same conditions. (SEC sorts molecules by how far they enter the pores of the column.)
In test [2] the target is full-length CNPase construct (residues -1-378), mouse 2',3'-cyclic nucleotide 3'-phosphodiesterase lacking the 22-residue C-terminal tail (mouse). Briefly: SEC-MALS; Sephadex S-200 column with online light scattering and refractive index detectors; 20 mM Bis-Tris-HCl pH 5.5, 300 mM NaCl, 1% glycerol, 1 mM DTT; monomer-dimer equilibrium.

As a reminder, the stoichiometry N is the number of molecules, sites or subunits per partner or assembly.

For “N-terminal domain of murine CNPase (residues -1-160) (domain or fragment)”, the stoichiometry N in test [1] came out at 2.
As to “full-length CNPase construct (residues -1-378), mouse 2',3'-cyclic nucleotide 3'-phosphodiesterase lacking the 22-residue C-terminal tail (enzyme)”, the stoichiometry N in test [2] was found to be 2.

Source of the values: PMC3290555.
